Here are results for six molecules from patent US20240092937A1 (HUMMINGBIRD BIOSCIENCE HOLDINGS PTE, published 2024).

Assay [1] addresses human HER3 expressed on cells (human) (UniProt P21860). Kind of assay: flow cytometry, HEK293 cells overexpressing human HER3, 20 ug/ml antibody, FITC anti-Fc secondary; isotype on WT HEK293: 0.07. (Flow cytometry measures light scatter and fluorescence of single cells or particles in a stream.)
Assay [2] addresses human HER4 expressed on HEK293 cells (human) (UniProt Q15303). As to the kind of experiment: flow cytometry on HEK293 HER4 overexpressing cells, 10 µg/ml antibody.
Assay [3] has as its target human HER3 expressed on cells (human) (UniProt P21860). As to the kind of experiment: flow cytometry on HEK293T HER3 O/E cells, '10 ug' antibody as printed (10 µg/ml by paragraph 872), FITC anti-Fc secondary.
The target in a further assay is FcRn (human) (UniProt P55899). Kind of assay: Bio-Layer Interferometry, determined as described in Example 7. In general terms: BLI is a label-free optical method that tracks binding on a fibre tip over time.
Another assay deals with FcgRIIIA (F158) (human) (UniProt P08637). The assay is described as above.
For a further assay, the target named is T1, moFcRn (mouse) (UniProt Q61559).
T1 sequence (receptor, looked up): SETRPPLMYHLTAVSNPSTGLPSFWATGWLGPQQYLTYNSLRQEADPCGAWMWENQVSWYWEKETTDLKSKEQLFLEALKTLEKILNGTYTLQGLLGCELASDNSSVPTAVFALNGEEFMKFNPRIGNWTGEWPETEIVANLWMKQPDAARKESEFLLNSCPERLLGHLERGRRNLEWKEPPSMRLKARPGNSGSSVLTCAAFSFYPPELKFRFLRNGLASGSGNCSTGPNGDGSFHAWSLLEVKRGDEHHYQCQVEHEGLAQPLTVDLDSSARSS
T1 sequence (looked up): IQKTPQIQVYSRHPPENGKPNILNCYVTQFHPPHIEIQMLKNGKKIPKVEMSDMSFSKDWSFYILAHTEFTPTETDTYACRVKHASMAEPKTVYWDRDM
The description is as above.

A further assay addresses moFcgRIV (mouse). Described as above.
Assay [4] deals with His-tagged FcγRIIIa (V158) (UniProt P08637). As to the kind of experiment: Bio-Layer Interferometry, determined as described in Example 7; receptor row FcgRIIIA (V158).
The target in assay [5] is human HER3 expressed on cells (human) (UniProt P21860). As to the kind of experiment: flow cytometry, HEK293 cells overexpressing human HER3, 20 ug/ml antibody, FITC anti-Fc secondary; same antibody on WT HEK293: 1.91.
Assay [6] shares this target. Kind of assay: flow cytometry, HEK293 cells overexpressing human HER3, 20 ug/ml antibody, FITC anti-Fc secondary; same antibody on WT HEK293: 8.15.
In the next assay the target is FcgRIIA (H167) (human). As to the kind of experiment: Bio-Layer Interferometry, determined as described in Example 7.
In another assay the target is FcgRIIA (R167) (human). Described as above.
Another assay concerns the target FcgRIIB (human). Described as above.
Assay [7] has as its target human HER3 polypeptide, recombinant (His-tagged human HER3) (human) (UniProt P21860). Kind of assay: BLI (Octet QK384), His-tagged human HER3 on anti-Penta-HIS tips, saturating antibody LJM-716 (400 nM), then competing antibody MM-121 (300 nM).
The target is the same in assay [8]. Kind of assay: plate ELISA dimerisation assay: human EGFR-His coated, HER3-biotin 4 µg/ml and NRG 0.1 µg/ml constant, antibody titrated; blocked interaction EGFR:HER3. For orientation: In an ELISA, binding on a coated surface is turned into a signal by an enzyme label.
For another assay, the target named is T2, mouse HER3 polypeptide (mouse, UniProt Q61526 20-641).
T2 construct: also called M. musculus HER3 homologue
As to the kind of experiment: ELISA, plate coated with 0.1 ug/ml target polypeptide, antibody serially diluted. On the procedure: (§1) ELISAs were used to determine the binding specificity of the antibodies. […] The antibodies were also analysed for their ability to bind to human EGFR and human HER2 (Sino Biological Inc., China).
(§2) ELISAs were carried out according to standard protocols. Briefly, 96-well plates (Nunc, Denmark) were coated with 0.1 μg/ml of target polypeptide in phosphate-buffered saline (PBS) for 16 h at 4° C. After blocking for 1 h with 1% BSA in Tris buffer saline (TBS) at room temperature, the anti-HER3 antibody was serially diluted with the highest concentration being 10 μg/ml, and added to the plate. Post 1 h incubation at room temperature, plates were washed three times with TBS containing 0.05% Tween 20 (TBS-T) and were then incubated with a HRP-conjugated […] antibody (Life Technologies, Inc., USA) for 1 h at room temperature. After washing, plates were developed with colorimetric detection substrate 3,3′,5,5′-tetramethylbenzidine (Turbo-TMB; Pierce, USA) for 10 min.

The target of another assay is T3, rat HER3 polypeptide (rat, UniProt Q62799 20-643, limits assumed).
T3 construct: also called R. norvegicus HER3 homologue
The assay is described as above. On the procedure:
as §1, §2

The target of assay [9] is T4, human EGFR polypeptide, recombinant (human, UniProt P00533 25-645).
T4 construct: also called human HER1 (EGFR); human EGFR-His
The description is as above. On the procedure: as §1, §2

The target of assay [10] is human HER2 polypeptide, recombinant (His-tagged HER2 protein) (human, UniProt P04626 23-652). The assay is described as above. As to the method: as §1, §2
Assay [11] concerns the target T5, human HER3 polypeptide, recombinant (His-tagged human HER3) (human, UniProt P21860 20-643, biotinylated in the assays of paragraph 766 and paragraph 908).
T5 construct: Bought protein (Sino Biological for the ELISAs); also called HER3 His; HER3-biotin
As to the kind of experiment: ELISA on human HER3 polypeptide coated at 0.1 ug/ml.

For orientation: Kd means the equilibrium constant for the complex coming apart. What is called IC50 is the point on the concentration scale where inhibition reaches its midpoint. The EC50 (read off the curve) is the concentration at which the effect is half-maximal.

T2 sequence (Q61526 20-641 limits assumed): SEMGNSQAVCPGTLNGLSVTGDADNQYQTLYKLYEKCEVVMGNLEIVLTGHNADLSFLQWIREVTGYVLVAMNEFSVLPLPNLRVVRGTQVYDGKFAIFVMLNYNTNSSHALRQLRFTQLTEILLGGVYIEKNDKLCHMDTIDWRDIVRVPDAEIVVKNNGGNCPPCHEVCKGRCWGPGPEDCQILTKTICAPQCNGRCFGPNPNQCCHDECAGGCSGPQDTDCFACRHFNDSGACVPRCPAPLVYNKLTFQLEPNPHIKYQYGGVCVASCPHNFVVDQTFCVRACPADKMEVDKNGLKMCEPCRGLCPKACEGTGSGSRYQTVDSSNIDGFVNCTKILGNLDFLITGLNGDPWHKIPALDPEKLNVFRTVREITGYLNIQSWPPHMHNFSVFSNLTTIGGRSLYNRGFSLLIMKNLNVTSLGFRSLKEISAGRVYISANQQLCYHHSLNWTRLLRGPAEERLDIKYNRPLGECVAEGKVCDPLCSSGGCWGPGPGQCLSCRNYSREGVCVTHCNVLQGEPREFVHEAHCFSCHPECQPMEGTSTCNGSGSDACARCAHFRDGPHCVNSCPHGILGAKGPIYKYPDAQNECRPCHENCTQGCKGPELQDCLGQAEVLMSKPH
FcgRIIA (H167) (human), sequence (P12318 34-217): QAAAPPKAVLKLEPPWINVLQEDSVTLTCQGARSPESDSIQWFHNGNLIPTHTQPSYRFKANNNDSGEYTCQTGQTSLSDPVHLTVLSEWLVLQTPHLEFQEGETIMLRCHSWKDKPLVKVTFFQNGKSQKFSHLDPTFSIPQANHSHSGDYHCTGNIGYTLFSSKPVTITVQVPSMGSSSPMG
FcgRIIB (human), sequence (P31994 43-217): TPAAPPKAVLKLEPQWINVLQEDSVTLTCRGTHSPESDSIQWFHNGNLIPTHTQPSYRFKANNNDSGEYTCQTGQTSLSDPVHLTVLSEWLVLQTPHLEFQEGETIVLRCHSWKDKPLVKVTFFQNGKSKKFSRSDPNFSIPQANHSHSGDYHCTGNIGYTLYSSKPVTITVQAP
T3 sequence (Q62799 20-643 limits assumed): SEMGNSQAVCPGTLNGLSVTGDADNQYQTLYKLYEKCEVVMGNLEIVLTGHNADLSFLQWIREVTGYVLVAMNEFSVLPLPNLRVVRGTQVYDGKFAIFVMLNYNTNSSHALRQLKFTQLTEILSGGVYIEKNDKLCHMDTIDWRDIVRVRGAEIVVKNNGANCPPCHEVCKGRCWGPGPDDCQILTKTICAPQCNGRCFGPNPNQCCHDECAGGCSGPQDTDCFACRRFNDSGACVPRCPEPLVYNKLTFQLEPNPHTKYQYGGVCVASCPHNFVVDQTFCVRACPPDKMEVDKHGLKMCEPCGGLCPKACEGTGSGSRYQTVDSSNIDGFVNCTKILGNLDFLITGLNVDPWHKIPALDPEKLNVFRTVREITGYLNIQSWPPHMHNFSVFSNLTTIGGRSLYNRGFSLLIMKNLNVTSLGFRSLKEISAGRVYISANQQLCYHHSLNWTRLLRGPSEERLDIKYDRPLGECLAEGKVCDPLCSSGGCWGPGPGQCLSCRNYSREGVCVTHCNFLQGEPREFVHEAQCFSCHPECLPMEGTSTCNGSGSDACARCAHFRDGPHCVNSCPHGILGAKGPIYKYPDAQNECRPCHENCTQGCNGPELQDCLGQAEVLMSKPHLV

As to Isotype (antibody), the % Parent (HER3 positive) in assay [1] amounted to 0.12%.
In assay [2], hIgG1 Isotype (antibody) showed a % Positive for HER4 of 0.07%. Moreover, in assay [3], the % Parent (HER3 positive gate) came out at 0.18%.
As to anti-HER3 antibody clone LJM716, the % Positive for HER4 in assay [2] is 0.27%. Moreover, the Kd came to 16.5 nM with FcRn (human); 5380 nM in the assay with FcgRIIIA (F158) (human); 12.8 nM with moFcRn (mouse); 701 nM in the assay with moFcgRIV (mouse); 705 nM in assay [4]. Further, the % Parent (HER3 positive gate) in assay [3] is 74.4%. For the same molecule, the % Parent (HER3 positive) in assay [5] came out at 99.5%. The % Parent (HE3 Positive) in [6] stood at 98.7%.

B1: anti-HER3 antibody MM-121 (seribantumab) (antibody, INN chains, looked up, human IgG2)
heavy: EVQLLESGGGLVQPGGSLRLSCAASGFTFSHYVMAWVRQAPGKGLEWVSSISSSGGWTLYADSVKGRFTISRDNSKNTLYLQMNSLRAEDTAVYYCTRGLKMATIFDYWGQGTLVTVSSASTKGPSVFPLAPCSRSTSESTAALGCLVKDYFPEPVTVSWNSGALTSGVHTFPAVLQSSGLYSLSSVVTVPSSNFGTQTYTCNVDHKPSNTKVDKTVERKCCVECPPCPAPPVAGPSVFLFPPKPKDTLMISRTPEVTCVVVDVSHEDPEVQFNWYVDGVEVHNAKTKPREEQFNSTFRVVSVLTVVHQDWLNGKEYKCKVSNKGLPAPIEKTISKTKGQPREPQVYTLPPSREEMTKNQVSLTCLVKGFYPSDIAVEWESNGQPENNYKTTPPMLDSDGSFFLYSKLTVDKSRWQQGNVFSCSVMHEALHNHYTQKSLSLSPG
light: QSALTQPASVSGSPGQSITISCTGTSSDVGSYNVVSWYQQHPGKAPKLIIYEVSQRPSGVSNRFSGSKSGNTASLTISGLQTEDEADYYCCSYAGSSIFVIFGGGTKVTVLGQPKAAPSVTLFPPSSEELQANKATLVCLVSDFYPGAVTVAWKADGSPVKVGVETTKPSKQSNNKYAASSYLSLTPEQWKSHRSYSCRVTHEGSTVEKTVAPAECS
B1 registered a % Positive for HER4 in assay [2] of 8.73%. In addition, the Kd with FcRn (human) turned out to be 11.5 nM; with FcgRIIA (H167) (human) it was 222 nM; with FcgRIIA (R167) (human), 243 nM; with FcgRIIB (human), 1440 nM; in the assay with moFcRn (mouse) it was 6.69 nM; in [4] it was 7050 nM. For the same molecule, in assay [7], the cell of the competition table (name and unit of the value not given) was found to be 0.693. Moreover, in assay [8], the concentration for half-maximal inhibition (IC50) came out at 54.2 nM.

B2: anti-HER3 clone 4-35-B4 IgG1 (antibody, V domains shown)
VH: EVQLQQSGAELVKPGASVKLSCTASGFNIKDTYIHWVKQRPDQGLEWIGKIIDPANGNTNYDPKFQGKATITADTSSNTAYLQLSSLSSEDTAVYFCARGLHWGQGTTLTVSS
VL: DIVLTQSPASLAVSLGQRATISCRASKSVSTSGYSYMHWYQQKPGQPPKLLIYLASNLESGVPARFSGSGSGTDFTLNIHPVEEEDAATYYCQHSRELPYTFGGGTKLEIKR
notes: Human IgG1 / kappa chimeric
B2: the binding result (with mouse HER3 polypeptide; with rat HER3 polypeptide; in assay [9]; in [10]) was “binds” in each case.

B3: anti-HER3 clone 10D1_c90 IgG1 (antibody, V domains shown)
VH: QVQLQESGPGLVKPSQTLFLTCTVSGYSITSGYSWHWIRQHPGKGLEWIGSIRYSGGTDYNPSLKSLVTISVDTSKNQFSLKLSSVTAADTAVYYCARMTTAPWYPFDYWGQGTTVTVSS
VL: DIQMTQSPSSVSASVGDRVTFTCKASQIVGSNVAWYQQKPGKAPEPLIYSASYLYSSVPSRFSGSGSGTEFTMTISSLEPEDFATYYCQQYTTHPLTFGPGTKVEIKR
notes: Humanised 10D1 variant, human IgG1 / kappa
In the case of B3, the “EC50 (read off the curve)” value in [11] was around 6 ng/mL.
